# Results: a protein production outcome set (Wang et al. 2014)
# Test: label from the status in PepcDB records
row,Sequence,protein production
1,MAYDDMGFPVSVSGPARRVVSLVPSLTEAIAHTRREALVGATDWCTHPAGLDVARVRGTKNPDRAAIAALRPDLVIANKEENRELDVRMLRAAGIPVWVTVIQTVPQALDSLTRLFTEALCWPLPDWLVEARRLWSHPLPPVRARVAIPVWRDPWMVVGSATFTGDLARRLGLANVFADHPERYPKVALADIDRDDVDLVVLPDEPYAFTPQDGPEAFRCAPTVLVSGRLLTWYGPSLLHAKEGLAALVQ,failed
2,MGLIYKVADQDWEFERIHKLNYKTFVEEIPQHEETKDRVRIDRFHDENTYLICLDEDKLVGMVALRGKRPFSLDYKISNLDFYLQEHGENVYEIRLLSVEREYRNGRALLGLIRFLHRYLLLNGYELALISATTRELPLYEQMGFKSFHTL,failed
3,MSQANANFLDNSKVSANKTAESGQLKEFRTPPHNLAIEQAVLAALMTVAESFEQVNDLLKENDFYATRHKYIFRAIEKLAQENSPYDAVLVNDWLLKQNLLDAIGGEEYLMQLMADSPSSFYNLETYASKIKEFSTLRSMIKVSSDILQNAYDTKGRPVSEILDLAETSIFSLAEQHNNNKKDAGPKSISSVTADVISKLDELSKLDGNITGLTTGFLELDNKTYGMQSGDMIIVAARPSMGKTTFAMNLVESVLFNCNLPALVFSMEMPADSIAMRLISSYGKVHQGHLRSGKLDGDEWSKVTGTILQLQEKHLYIDDSSALPPTELRARARRIAKQHGGKLGCIMIDYLQLMKVPGMGDNRVGEIGEISRSLKALAKEMDCPVIALSQLNRSLENRPNKRPVMSDLRESGAIEQDADLIMFIYRDEVYNKESKEAGTAEIIIGKQRNGPIGTVRLAFEGQYTRFSNLSPEYYSQYDDEE,failed
4,MAASSQAPEAKGFRWKLIAPLVVWLAIYLWPVPSGLNVNQWHYFAVFAAVITGLILESMPVGAVGLIGLTVAGVGGYIDPDPTKSLRWMLAGFAESTVWLIVGAFVFSIGYRKSQLGRRIALVLVQKLGSNTLGLGYAVAMSDFLLAPATPSNTARSGGIVYPIISNIPRIYGSEPGPTAGRIGTYVMWTAFAATAVTSSLFFTALAPNAAALAIAKKTVGVEVSWGQWFIGFAPLGILLMILVPLLSYPVCRPEVKRSPEIAEWAAKELSEMGPMSRNEWIMLALIVLAMFLWIAGSSPDINVPLLGSNFVNATTVVFIVISLMLVTGVIEFADIVSEKSAWEVFFYFTSLLTLASGLNEIGFIKWFATEYAKPLAGLSPSTAMILLVALFFWIHYFFSSITSHAAAVLPVVLAVGSGIPGLPVTTLAMLCMYSLGLMGVISPYATGPAPMYFGSGYIGKGQFWGFGLIFGLLYFAGLLLIVLPWLQVR,failed
5,MPQVETTSVFRADLLKEMESSTGTAPASTGAENLPAGSALLVVKRGPNAGARFLLDQPTTTAGRHPESDIFLDDVTVSRRHAEFRINEGEFEVVDVGSLNGTYVNREPRNAQVMQTGDEIQIGKFRLVFLAGPAELEHHHHHH,not failed
6,MTPYQGEPLSLNFQDVEVRAVLQVLADYAGVNLVASDAVQGSVTLRLQDVPWDQALDLVLRSKGLSRRQEGNVLLVAPAAEFAAQSADARVSQALDAHLQPLRRELLPIHHAKAADLAQLLLAGLEGDGIPPASLSVDERTNTLVVHLPADRLAEMRQLVAQLDVPVRQVAIEARIVEANVDYEKSLGVRWGGPLYGEKLRPGKELFVDLGLERAGSSIGLGLLRGDVLLDLELSAMEKSGNGEIISQPKVVTADKETARILKGTEVPYQETSQSGATSVSFREASLSLEVTPQITPDNKVIMTVRVTKDEPDYVNALNNVPPIRKNEVNAKVRVADGETIVIGGVYSTSQNNVVDKVPFFGDLPYVGRLFRRDALQEKKSELLVFLTPRIMSDQAIAVSRLEHHHHHH,failed
7,MITIITLLLVVLISAIIVRIGAVALEMTGLSRDVAAFQAQSAFSGVGFTTSESEYVVSHPVRRRIIRILMLLGSAGVTSAIATLVLSFVGTTKEEAGYRMVVLLIGLLALYLFFRSKFIERVMRKAIKKGLSRLAPSLRVIDYSQLLGITRGYSIVQIKVKRRSWLADKTLRDLQLDKEGVLVLGIYRKVNGRRVYLGAPHGSTKVLPGDELILYGPEDVLMSLSKRLKGAKGEKEHVEAMEMAKARRVQEEREAGISV,failed
8,MTPPERVRRKCPQTNTREPIIQEPDTFEPEATRRDAGATESSRANRGWWDRNADDYQVEHGTFLGDDRFVWCPEGLDEVEAELLGPAEDLKGKDVLEIGAGAAQCSRWLAGQGARPVALDLSHRQLQHALRIGGDVPLVEADAGALPFADASFDLACSAYGALPFVADPVRVLREVHRVLRPGGRFVFSVTHPIRWAFPDEPGPEGLSVSASYFDRTPYVEQDEEGGAVYVEHHRTIGDRVRDVVAGGFRLLDVVEPEWPAWNTQEWGGWSPLRGNLIPGTAIFVCVRD,failed
